How the values were obtained:
[1] = biological target: human cystatin C (Cst-3), E. coli expressed (human) (UniProt P01034); assay: SEC; gel permeation on Superdex 200 in 20 mM Tris, 150 mM NaCl, pH 7.1, after cation exchange; monomer and dimer told by elution
[2] = biological target: papain (UniProt P00784)
Chain of UniProt P00784 (P00784 134-345): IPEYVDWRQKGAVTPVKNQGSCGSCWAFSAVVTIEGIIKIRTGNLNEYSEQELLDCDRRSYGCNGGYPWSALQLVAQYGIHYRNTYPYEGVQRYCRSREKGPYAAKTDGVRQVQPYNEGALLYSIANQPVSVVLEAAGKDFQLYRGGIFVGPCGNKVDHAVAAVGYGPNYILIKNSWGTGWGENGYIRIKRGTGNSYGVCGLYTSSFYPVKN

A stoichiometry N [1] of 2 was found for “human cystatin C (Cst-3), E. coli expressed (from UniProt P01034 27-146) (natural protein)” in this work.

An inhibition of papain activity (colorimetric peptide substrate Z-Phe-Arg-pNA, pH 5.5) by 60 nM Cst-3 preincubated with equimolar heparin or HS hexasaccharide, against apo Cst-3 [2] of 80% was found for “murine cystatin C (Cst-3), E. coli expressed (from UniProt P21460 21-140) (natural protein)” in this work.

— paper PMC7881039
